Results on two molecules are retold here after article PMC9431562, “A Cytoplasmic NAD(P)H-Dependent Polysulfide Reductase with Thiosulfate Reductase Activity from the Hyperthermophilic Bacterium Thermotoga maritima” (Microbiology Spectrum, 2022).

The target of one data set is T1, NSR (Thermotoga maritima, UniProt Q9WYL1).
T1 construct: gene TM_0379; full-length ORF amplified from genomic DNA, pET-24b(+) BamHI/XhoI, His-tagged, E. coli BL21; about 50 kDa by SDS-PAGE; FAD flavoprotein; purified anaerobically
T1 sequence (Q9WYL1 1-443): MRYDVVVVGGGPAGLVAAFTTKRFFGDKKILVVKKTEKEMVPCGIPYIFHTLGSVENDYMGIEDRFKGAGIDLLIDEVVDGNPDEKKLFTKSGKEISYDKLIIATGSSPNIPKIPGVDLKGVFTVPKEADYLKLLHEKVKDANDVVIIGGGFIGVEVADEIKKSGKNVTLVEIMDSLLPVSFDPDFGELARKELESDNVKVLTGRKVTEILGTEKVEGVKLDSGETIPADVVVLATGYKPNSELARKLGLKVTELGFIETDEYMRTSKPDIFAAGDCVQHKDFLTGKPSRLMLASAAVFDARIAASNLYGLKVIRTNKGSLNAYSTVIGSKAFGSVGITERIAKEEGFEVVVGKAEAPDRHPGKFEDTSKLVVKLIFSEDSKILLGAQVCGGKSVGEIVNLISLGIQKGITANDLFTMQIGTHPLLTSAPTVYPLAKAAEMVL
Nature of the data set: thin-layer chromatography of cofactor. To be noted: as-purified recombinant enzyme. It is filed as binding.

Substrate in data set [1]: NC(=O)C1=CN([C@@H]2O[C@H](COP(=O)(O)OP(=O)(O)OC[C@H]3O[C@@H](n4cnc5c(N)ncnc54)[C@H](OP(=O)(O)O)[C@@H]3O)[C@@H](O)[C@H]2O)C=CC1
Nature of the data set: purified protein. It is filed as biochemical, Thermotoga maritima. The settings on record: co-substrate S^0, 50 mM phosphate pH 7.0, 45 °C, anaerobic, table cell does not tell whether CoA was present.

Substrate in data set [2]: O=S(O)(O)=S
Nature of the data set: purified protein. It is filed as biochemical, Thermotoga maritima. The settings on record: co-substrate NADH, 50 mM phosphate pH 7.0, 45 °C, anaerobic, table cell does not tell whether CoA was present.

Substrate in data set [3]: NC(=O)C1=CN([C@@H]2O[C@H](COP(=O)(O)OP(=O)(O)OC[C@H]3O[C@@H](n4cnc5c(N)ncnc54)[C@H](O)[C@@H]3O)[C@@H](O)[C@H]2O)C=CC1
Nature of the data set: purified protein. It is filed as biochemical, Thermotoga maritima. The settings on record: co-substrate S^0, 50 mM phosphate pH 7.0, 45 °C, anaerobic, table cell does not tell whether CoA was present.

For `Cc1cc2nc3c(=O)[nH]c(=O)nc-3n(C[C@H](O)[C@H](O)[C@H](O)COP(=O)(O)OP(=O)(O)OC[C@H]3O[C@@H](n4cnc5c(N)ncnc54)[C@H](O)[C@@H]3O)c2cc1C` [FAD], the “thin-layer chromatography of cofactor” value at NSR was “Thin-layer chromatography analysis showed that it binds FAD as its cofactor”.

B1: NSR (Thermotoga maritima MSB8) (protein)
chain: T1 sequence (Q9WYL1 1-443)
notes: full-length ORF amplified from genomic DNA, pET-24b(+) BamHI/XhoI, His-tagged, E. coli BL21; about 50 kDa by SDS-PAGE; FAD flavoprotein; purified anaerobically
Consider B1, for which the Michaelis constant (Km) in the data set “purified protein [1]” turned out to be 80 ± 21.2 µM; in the data set “purified protein [2]”, 10 ± 1.2 µM; in the data set “purified protein [3]”, 50 ± 6.3 µM.
